In US6218168A, “Process for preparing O-acetylserine, L-cysteine and L-cysteine-related products” (Consortium fur elektrochemische Inudstrie GmbH, priority 1995, dated 2001):
Substitutions are numbered along the chain they refer to.

B1: cysEII: feedback-resistant serine acetyltransferase allele, Gly238->Ser238 (protein, UniProt P0A9D4 1-273, looked up, variant G238S)
Serine acetyltransferase: MSCEELEIVWNNIKAEARTLADCEPMLASFYHATLLKHENLGSALSYMLANKLSSPIMPAIAIREVVEEAYAADPEMIASAACDIQAVRTRDPAVDKYSTPLLYLKGFHALQAYRIGHWLWNQGRRALAIFLQNQVSVTFQVDIHPAAKIGRGIMLDHATGIVVGETAVIENDVSILQSVTLGGTGKSGGDRHPKIREGVMIGAGAKILGNIEVGRGAKIGAGSVVLQPVPPHTTAASVPARIVGKPDSDKPSMDMDQHFNGINHTFEYGDGI
B2: cysEIII: feedback-resistant serine acetyltransferase allele, Gly165->Asp165 (protein, UniProt P0A9D4 1-273, looked up, variant G165D)
Serine acetyltransferase: B1 Serine acetyltransferase with G165D, S238G
B3: cysE-Del249: carboxyterminal deletion of 24 amino acids, terminal Ser249 (protein, UniProt P0A9D4 1-249, looked up, fragment)
chain: MSCEELEIVWNNIKAEARTLADCEPMLASFYHATLLKHENLGSALSYMLANKLSSPIMPAIAIREVVEEAYAADPEMIASAACDIQAVRTRDPAVDKYSTPLLYLKGFHALQAYRIGHWLWNQGRRALAIFLQNQVSVTFQVDIHPAAKIGRGIMLDHATGIVVGETAVIENDVSILQSVTLGGTGKSGGDRHPKIREGVMIGAGAKILGNIEVGRGAKIGAGSVVLQPVPPHTTAAGVPARIVGKPDS
B4: cysE-Del257: carboxyterminal deletion of 16 amino acids, terminal Asp257 (protein, UniProt P0A9D4 1-257, looked up, fragment)
chain: MSCEELEIVWNNIKAEARTLADCEPMLASFYHATLLKHENLGSALSYMLANKLSSPIMPAIAIREVVEEAYAADPEMIASAACDIQAVRTRDPAVDKYSTPLLYLKGFHALQAYRIGHWLWNQGRRALAIFLQNQVSVTFQVDIHPAAKIGRGIMLDHATGIVVGETAVIENDVSILQSVTLGGTGKSGGDRHPKIREGVMIGAGAKILGNIEVGRGAKIGAGSVVLQPVPPHTTAAGVPARIVGKPDSDKPSMDMD
B5: cysE-Del250: carboxyterminal deletion of 23 amino acids, terminal Asp250 (protein, UniProt P0A9D4 1-250, looked up, fragment)
chain: MSCEELEIVWNNIKAEARTLADCEPMLASFYHATLLKHENLGSALSYMLANKLSSPIMPAIAIREVVEEAYAADPEMIASAACDIQAVRTRDPAVDKYSTPLLYLKGFHALQAYRIGHWLWNQGRRALAIFLQNQVSVTFQVDIHPAAKIGRGIMLDHATGIVVGETAVIENDVSILQSVTLGGTGKSGGDRHPKIREGVMIGAGAKILGNIEVGRGAKIGAGSVVLQPVPPHTTAAGVPARIVGKPDSD
B6: cysE-Del258: carboxyterminal deletion of 15 amino acids, terminal Gln258 (protein, UniProt P0A9D4 1-258, looked up, fragment)
chain: MSCEELEIVWNNIKAEARTLADCEPMLASFYHATLLKHENLGSALSYMLANKLSSPIMPAIAIREVVEEAYAADPEMIASAACDIQAVRTRDPAVDKYSTPLLYLKGFHALQAYRIGHWLWNQGRRALAIFLQNQVSVTFQVDIHPAAKIGRGIMLDHATGIVVGETAVIENDVSILQSVTLGGTGKSGGDRHPKIREGVMIGAGAKILGNIEVGRGAKIGAGSVVLQPVPPHTTAAGVPARIVGKPDSDKPSMDMDQ
B7: cysE-Del256: carboxyterminal deletion of 17 amino acids, terminal Met256 (protein, UniProt P0A9D4 1-256, looked up, fragment)
chain: MSCEELEIVWNNIKAEARTLADCEPMLASFYHATLLKHENLGSALSYMLANKLSSPIMPAIAIREVVEEAYAADPEMIASAACDIQAVRTRDPAVDKYSTPLLYLKGFHALQAYRIGHWLWNQGRRALAIFLQNQVSVTFQVDIHPAAKIGRGIMLDHATGIVVGETAVIENDVSILQSVTLGGTGKSGGDRHPKIREGVMIGAGAKILGNIEVGRGAKIGAGSVVLQPVPPHTTAAGVPARIVGKPDSDKPSMDM
B8: cysE-Del259: carboxyterminal deletion of 14 amino acids, terminal His259 (protein, UniProt P0A9D4 1-259, looked up, fragment)
chain: MSCEELEIVWNNIKAEARTLADCEPMLASFYHATLLKHENLGSALSYMLANKLSSPIMPAIAIREVVEEAYAADPEMIASAACDIQAVRTRDPAVDKYSTPLLYLKGFHALQAYRIGHWLWNQGRRALAIFLQNQVSVTFQVDIHPAAKIGRGIMLDHATGIVVGETAVIENDVSILQSVTLGGTGKSGGDRHPKIREGVMIGAGAKILGNIEVGRGAKIGAGSVVLQPVPPHTTAAGVPARIVGKPDSDKPSMDMDQH
B9: cysE-Del248: carboxyterminal deletion of 25 amino acids, terminal Asp248 (protein, UniProt P0A9D4 1-248, looked up, fragment)
chain: MSCEELEIVWNNIKAEARTLADCEPMLASFYHATLLKHENLGSALSYMLANKLSSPIMPAIAIREVVEEAYAADPEMIASAACDIQAVRTRDPAVDKYSTPLLYLKGFHALQAYRIGHWLWNQGRRALAIFLQNQVSVTFQVDIHPAAKIGRGIMLDHATGIVVGETAVIENDVSILQSVTLGGTGKSGGDRHPKIREGVMIGAGAKILGNIEVGRGAKIGAGSVVLQPVPPHTTAAGVPARIVGKPD

Target: serine acetyltransferase
Assay: Serine acetyltransferase enzyme activity test with and without L-cysteine (inhibitor constant Ki, specific activity)
Type: biochemical, E. coli
Conditions: Table 1a; inhibitor L-cysteine; 1 mM L-serine, 0.1 mM acetyl-CoA
Source text: Any method which enables the activity of the serine acetyltransferase to be determined in the presence of cysteine can be used for determining the cysteine sensitivity of this enzyme. For example, the serine acetyltransferase activity can be determined using the method described by Kredich and Tomkins, J. Biol. Chem. 241: 4955-4965 (1966). In this test, the enzyme test mixture contains the substrate, L-serine, and the cofactor, acetyl-coenzyme A. The reaction is started by adding enzyme and monitored, in a spectro photometer, by observing the decrease in absorption at 232 nm which is elicited by the cleavage of the thioester bond in the acetyl-coenzyme A.
The above-described enzyme test is suitable for determining the cysteine sensitivity of any serine acetyltransferase enzyme, including the enzymes which have a modified carboxyl terminus. Inhibition of the serine acetyltransferase activity is tested in the presence of differing concentrations of L-cysteine in the reaction mixture. The catalytic activity of the different serine acetyltransferase enzymes is determined in the presence and absence of L-cysteine, and the inhibitor constant, Ki, is ascertained from this (Kredich and Tomkins, J. Biol. Chem., 241, 4955-4965 (1966)).
In order to investigate the biochemical basis of the cysteine secretion of the revertants, the activity of the serine acetyltransferase was determined in vitro, and the ability of cysteine to inhibit the enzyme was measured. For the determination, use was made of S30 extracts (cell homogenates centrifuged at 30,000 g and 4° C. for 20 minutes) of the selected revertants, the starting strains and the comparison strain, E. coli W3110 (ATTC 27325).
The biochemical parameters such as enzyme activity and inhibitor constant, Ki, were determined in an analogous manner to that described in Example 1.
The plasmids resulting from this cloning were designated pACYC184/cysE-Del in accordance with the extent of their deletion (cf. FIG. 9 for the plasmid map). Determination of the enzymic activity and the inhibitor constant, Ki, and also the cross-feeding test, were carried out in analogy with the description in Example 1. DNA sequence analysis was used to confirm that the deletions had been correctly introduced.
Determination of the enzymic activity and of the inhibitor constant Ki, and also the cross-feeding test, were carried out in analogy with the description in Example 1.

Row | Molecule | Ki [µM]
1 | B1 | 10
2 | B2 | 10

Same assay, conditions: Table 1a; serine acetyltransferase activity

Row | Molecule | spec. act. [µmol/min/mg]
3 | B1 | 0.068
4 | B2 | 0.030

Same assay, conditions: Table 1b; carboxyterminal deletions

Row | Molecule | spec. act. [μmol/min x mg]
5 | B3 | 0.420
6 | B4 | 0.394
7 | B5 | 0.405
8 | B6 | 0.256
9 | B7 | 0.366
10 | B8 | 0.328
11 | B9 | 0.270

Same assay, conditions: Table 1b; carboxyterminal deletions; inhibitor L-cysteine

Row | Molecule | Ki [µM]
12 | B3 | 15
13 | B4 | 7.5
14 | B5 | 20
15 | B6 | 5
16 | B7 | 12.5
17 | B8 | 7.5
18 | B9 | 12.5

Same assay, conditions: Table 2; alleles from chemical mutagenesis; inhibitor L-cysteine

Row | Molecule | Ki [µM]
19 | B1 | 10
20 | B2 | 10

Same assay, conditions: Table 6; carboxyterminal deletions; inhibitor L-cysteine

Row | Molecule | Ki [µM]
21 | B3 | 15
22 | B4 | 7.5
23 | B5 | 20
24 | B6 | 5
25 | B7 | 12.5
26 | B8 | 7.5
27 | B9 | 12.5
